Measured values published in PMC6122996 (The Journal of Cell Biology, 2018).

B1: GST-CENP-F-NBD (GST-tagged CENP-F fragment containing its Nde1-binding domain) (domain or fragment, human, UniProt P49454 2122-2297, looked up)
chain: EKLRVRIEADEKKQLHIAEKLKERERENDSLKDKVENLERELQMSEENQELVILDAENSKAEVETLKTQIEEMARSLKVFELDLVTLRSEKENLTKQIQEKQGQLSELDKLLSSFKSLLEEKEQAEIQIKEESKTAVEMLQNQLKELNEAVAALCGDQEIMKATEQSLDPPIEEEH

Key:
[1] = molecular target: CENP-F (UniProt P49454); test: anti-GFP co-immunoprecipitation; conditions: reference: GFP WT Nde1; sites T215,T243,T246
[2] = molecular target: T1, recombinant WT full-length Nde1, not phosphorylated (dephospho-Nde1) (mouse, UniProt Q9CZA6 1-344); test: pull-down
T1 sequence (looked up): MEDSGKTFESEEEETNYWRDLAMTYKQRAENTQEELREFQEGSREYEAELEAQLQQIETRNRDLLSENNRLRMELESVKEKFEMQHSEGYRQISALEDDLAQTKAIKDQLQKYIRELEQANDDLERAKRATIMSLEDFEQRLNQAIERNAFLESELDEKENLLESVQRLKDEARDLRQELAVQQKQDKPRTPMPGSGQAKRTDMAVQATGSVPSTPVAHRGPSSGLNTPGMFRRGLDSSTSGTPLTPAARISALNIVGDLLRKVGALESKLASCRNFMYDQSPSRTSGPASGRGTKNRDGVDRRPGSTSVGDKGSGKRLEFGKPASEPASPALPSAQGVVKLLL

[3] = molecular target: B1; test: pull-down

In the case of Nde1 (from UniProt Q9CZA6) GFP-Nde1-3A, the “binding against the reference” value [1] is reported as “weaker”.

B1: binds [2].

B2: GFP-Nde1-3E (triple phosphomimetic Nde1) (natural protein, mouse, UniProt Q9CZA6 1-344, looked up)
chain: MEDSGKTFESEEEETNYWRDLAMTYKQRAENTQEELREFQEGSREYEAELEAQLQQIETRNRDLLSENNRLRMELESVKEKFEMQHSEGYRQISALEDDLAQTKAIKDQLQKYIRELEQANDDLERAKRATIMSLEDFEQRLNQAIERNAFLESELDEKENLLESVQRLKDEARDLRQELAVQQKQDKPRTPMPGSGQAKRTDMAVQATGSVPSEPVAHRGPSSGLNTPGMFRRGLDSSTSGEPLEPAARISALNIVGDLLRKVGALESKLASCRNFMYDQSPSRTSGPASGRGTKNRDGVDRRPGSTSVGDKGSGKRLEFGKPASEPASPALPSAQGVVKLLL
With B2 the “fold level pulled down against Nde1-3A” value [3] was 2.5 fold.
